Measurements reported in the supplement of paper PMC12042874.
± gives the uncertainty stated by the source.

Assay: amyloid nucleation score (Sup35N fusion, yeast selection) (log enrichment); library NNK2; higher = more nucleation; inactive = no reads after selection
Method in brief: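 Yeast lacking psi expressed peptides of 20 random codons fused to Sup35N, received 100 μM copper sulfate for 24 hours, and were then grown for 7 days at 30°C on medium lacking adenine and uracil. Illumina sequencing of input and output plasmid inserts provided the reads. Nucleation scores are DiMSum log enrichments of output over input, centred on the mode of non-aggregating sequences. Any sequence with under 100 input reads was excluded.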

| Substance | amyloid nucleation score |
| --- | --- |
| SWNKGIHGGSTANCWFIVIK | 0.029 ± 0.61 |
| SWPVRFQLNATGSPVGRLWT | -0.334 ± 0.76 |
| SWWTMWLLTRLRNSSSWGMT | 0.011 ± 0.23 |
| SYCILVLNL | 6.445 ± 0.045 |
| SYCTR | -0.645 ± 0.56 |
| SYCVWCLYTSLLTLGQSASI | 0.163 ± 0.33 |
| SYECPMHTLPVHSRSAYRST | 0.878 ± 0.27 |
| SYFLYLGLNPVYQWYDSFVV | 1.47 ± 0.14 |
| SYGFFMVWIEGYFLVMASRI | inactive |
| SYHRS | 0.086 ± 0.24 |
| SYIGFVSIGSNMNRCSFDKF | -0.116 ± 0.29 |
| SYIWSECRTNMIVWASNTLK | 3.81 ± 0.063 |
| SYMDE | 4.33 ± 0.06 |
| SYRSRVQYLCGNSMCLHAPI | 5.15 ± 0.098 |
| SYSQGD | 0.674 ± 0.53 |
| SYTGS | -0.019 ± 0.34 |
| SYTMVTLPSPSL | -0.224 ± 0.23 |
| SYVVVAPLCQCTTVSGRRGI | 1.04 ± 0.59 |
| SYYELGNDLSACYFYCHRVA | -0.253 ± 0.79 |
| SYYFGPHWRVYTAFARFRI | inactive |
| TAIYENYCMSVMWMLVVGRI | -0.277 ± 0.3 |
| TASIDKRVTGSSREWWRSRQ | 0.357 ± 0.66 |

| Substance | amyloid nucleation score |
| --- | --- |
| TASSLCIQVGYVIFLY | 8.072 ± 0.032 |
| TCARFVGMEM | 1.22 ± 0.27 |
| TCFTSCSG | 0.263 ± 0.37 |
| TCLAKLLFCKSTSKDRV | 0.063 ± 1.1 |
| TCRLRFGCEYGQTFSCVSWA | 0.531 ± 0.64 |
| TCSCSLVFYMILARG | -0.053 ± 0.63 |
| TCSGLCYIHWACIIGKDNYM | 4.9 ± 0.087 |
| TCVQLKNAIFQVSWYILLQG | -0.322 ± 0.65 |
| TCYLGPWCPIHDTRIRPGWV | 0.698 ± 0.21 |
| TDCFQFS | 0.713 ± 0.58 |
| TDGDRFSCRVKWNRHEDQRT | 0.463 ± 0.24 |
| TDIRTSGDERWAFDSMRTGD | 0.701 ± 0.37 |
| TDLIPRQKKITLWFIS | 0.159 ± 0.53 |
| TDLNHACCSNPLSF | -0.468 ± 0.61 |
| TDLVDPGGTKHRKDS | 0.523 ± 0.53 |
| TDVTYRNVVVSSRKFSGNRN | 8.149 ± 0.073 |
| TEQICGNMWSLYESFNFINS | -0.474 ± 1.1 |
| TESVPSWNGMKNMYEDNQLK | 1.54 ± 0.55 |
| TFAPDLS | -0.053 ± 0.56 |
| TFAVENHFFMEVLRRKVLIG | inactive |
| TFCVRQLYLSML | 0.833 ± 0.2 |
| TFDFDNVAVYYALSGTGDSW | -0.516 ± 0.34 |

| Substance | amyloid nucleation score |
| --- | --- |
| TFDLSWLVHVPDNCCHLLCF | -0.183 ± 0.28 |
| TFFDGSCLVRLSWAQLEFLT | -0.471 ± 0.41 |
| TFFYYYCMCSRTL | 7.83 ± 0.061 |
| TFGYCISLMTLTFVH | -0.239 ± 0.28 |
| TFHRS | 1.05 ± 0.29 |
| TFIHN | -0.161 ± 0.19 |
| TFNKLYYSSVACLCRLGHSR | 9.32 ± 0.055 |
| TFRIERSVGWYCNRASYSCK | 1.02 ± 0.21 |
| TFRYFGDWNLQRGML | 0.85 ± 0.52 |
| TFSLLGL | 4.1 ± 0.064 |
| TFSTYSFLFVKTVI | -0.417 ± 0.2 |
| TFSVSSYRNLP | -0.06 ± 0.79 |
| TFVGVLNQTNH | 2.73 ± 0.13 |
| TFVITLNGHSCQVGTITPRN | 8.012 ± 0.04 |
| TFVKRIRYCFYLS | 6.386 ± 0.023 |
| TFWLIRTSHRGYRYEKVCTY | -0.017 ± 0.49 |
| TGALVNM | 0.13 ± 1.1 |
| TGFMVTFASST | 0.02 ± 0.22 |
| TGHRTRVQTELLAFIAQVN | -0.526 ± 0.63 |
| TGHWMGPSDYRQRVCH | inactive |
| TGLIGEPYGWDRSTTGF | 0.17 ± 0.43 |
| TGVKRIMSGSIIFPFLAVSF | -0.751 ± 1.1 |

| Substance | amyloid nucleation score |
| --- | --- |
| THIAVIGISGTDEENLKLGR | 6.439 ± 0.026 |
| THIFVWNHFNLLRYTTKFLP | -0.304 ± 0.4 |
| THLSWQKMWFLIVHALKICL | inactive |
| THLWVNSFMIDPFRSESAAT | -0.499 ± 0.54 |
| THPEFSIPIGRHHYGG | -0.836 ± 0.29 |
| THWMKRRVVA | 1.33 ± 0.17 |
| TIACLEINPHAMSDYMRLCH | -0.842 ± 0.49 |
| TICGSCT | 0.045 ± 0.79 |
| TIDFWVRFYVRFYSRDGFYY | -2.33 ± 0.78 |
| TIDKISCNIRLRPVYMLLNA | 0.342 ± 0.56 |
| TIEGALSSS | 0.931 ± 0.22 |
| TIFSNFGSMSLIGHGIEQVI | -1.39 ± 0.76 |
| TIILG | -0.637 ± 0.27 |
| TIMNYTGCYFGPVGPDRDLG | 6.824 ± 0.042 |
| TIPVRPTMEYCTQLLTLLQ | 0.293 ± 0.47 |
| TIQGLFRFSADVRTCAFMGS | 2.33 ± 0.15 |
| TISFELSGMGIPSLWICGSR | 0.252 ± 0.65 |
| TITILV | 0.089 ± 0.23 |
| TIVYWSTTRTTAPGDDRESV | 5.31 ± 0.062 |
| TIYRSSSNNSQEHSLNLMFG | inactive |
| TKMYVD | -0.573 ± 1.1 |
